Measurements: patent US5576294A, “Human Kunitz-type protease inhibitor variant” (Novo Nordisk A/S, priority 1992, dated 1996)
Where two headings read alike, the source gives them in different places.

Key:
Porcine trypsin = biological target: T1, Porcine trypsin (Sus scrofa, UniProt P00761); assay: Inhibition of serine proteinases: trypsin, peptidyl nitroanilide substrate, residual activity at 405 nm; assay type: biochemical; settings: enzyme 10 nM, read-out: Apparent Ki (nM), Trypsin
T1 construct: purchased Novo Nordisk (Bagsvaerd, Denmark; the applicant itself)
T1 sequence (P00761 9-231): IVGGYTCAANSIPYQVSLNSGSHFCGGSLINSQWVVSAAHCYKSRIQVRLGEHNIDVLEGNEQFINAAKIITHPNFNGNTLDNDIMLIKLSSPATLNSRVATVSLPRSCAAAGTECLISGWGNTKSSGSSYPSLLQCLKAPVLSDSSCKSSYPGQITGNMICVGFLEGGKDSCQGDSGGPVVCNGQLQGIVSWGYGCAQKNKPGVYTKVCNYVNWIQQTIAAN
Experimental: (§1) KFN 1593 was purified from yeast culture medium as described in example 1. The concentration of KFN 1593 was determined using 1% E280 nm =8.3 and Mw =6500. Porcine trypsin was from Novo Nordisk (Bagsv.ae butted.rd, Denmark), bovine chymotrypsin (TLCK treated) and porcine pancreatic kallikrein was from Sigma Chemical Co (St. Louis, Mo., U.S.A.), human plasmin and human plasma kallikrein was from Kabi (Stockholm, Sweden).
(§2) Human neutrophil elastase and cathepsin G was purified from extracts of PMNs according to the method described by Baugh and Travis (Biochemistry 15 (1976) 836-843). Peptidyl nitroanilide substrates, S2251, S2586, S2266, S2302 were from Kabi (Stockholm, Sweden). M4765 and S7388 was from Sigma Chemical Co (St. Louis, Mo., U.S.A.) and FXa-1 was from NycoMed (Oslo, Norway).
(§3) Serine proteinases were incubated with various concentrations of KFN 1593 for 30 min. Substrate was then added and residual proteinase activity was measured at 405 nm.
(§4) The three TFPI (domain II) variants were purified from yeast culture medium. Their concentrations were determined from the absorbance at 214 nm using BPTI as a standard. The final concentration was determined by titration with trypsin. Porcine trypsin and human recombinant proteins, factor VIIa, activated protein C (ACP), and tPA were obtained from Novo Nordisk A/S (Bagsvaerd, Denmark), so was human thrombin. Bovine chymotrypsin and glandular kallikrein were obtained from Sigma Chemical Co. (St. Louis, Mo., U.S.A.). Truncated human recombinant tissue factor was obtained from Corvas (San Diego, Calif., U.S.A.). Human neutrophil cathepsin G was purified from extracts of PMNs according to the method described by Baugh and Travis (Biochemistry 15 (1976) 836-843). Human plasmin was from Kabi (Stockholm, Sweden), uPA was from Serono (Milan, Italy), human factor Xa was a gift from Dr. W. Kisiel (Albuquerque, N.M., U.S.A.), and human plasma kallikrein was a gift from Dr. I Schousboe (Copenhagen, Denmark).
(§5) Peptidyl nitroanilide substrates, S2251, S2302, S2266, S2586, S2288, S2444, S2366, and S2238 were from Kabi (Stockholm, Sweden). S7388 and M4765 were from Sigma Chemical Co. (St. Louis, Mo., U.S.A.) and FXa-1 was from Nycomed (Oslo, Norway).
(§6) Serine proteinases were incubated with various concentrations of Kunitz Domain variant for 30 min. Substrate (0.6 mM) was then added and residual proteinase activity was measured at 405 nm.
(§7) The four variants were purified from yeast culture medium. Their concentrations were determined from the absorbance at 214 nm using BTPI as a standard. Porcine trypsin was obtained from Novo Nordisk A/S (Bagsvaerd, Denmark, bovine chymotrypsin (TLCK treated) was obtained from Sigma Chemical Co. (St. Louis, Mo., U.S.A.). Truncated human recombinant tissue factor was obtained from Corvas (San Diego, Calif., U.S.A.). Human plasmin was from Kabi (Stockholm, Sweden). Human neutrophil cathepsin G and elastase were purified from extracts of PMNs according to the method described by Baugh and Travis (Biochemistry 15 (1976) 836-843).
(§8) Peptidyl nitroanilide substrates, S2251, S2586 were from Kabi (Stockholm, Sweden). S7388 and M4765 were from Sigma Chemical Co. (St. Louis, Mo., U.S.A.).
(§9) Serine proteinases were incubated with various concentrations of the variants for 30 min. Substrate ([…]) was then added and residual proteinase activity was measured at 405 nm.

[1] = biological target: T2, Human neutrophil elastase (Homo sapiens, UniProt P08246); assay: Inhibition of serine proteinases: neutrophil elastase; assay type: biochemical; settings: Example 9; for Ki: enzyme 4 nM, substrate M4765, 30 min incubation, read-out: Apparent Ki (nM), N. elastase
T2 construct: Human neutrophil elastase and cathepsin G was purified from extracts of PMNs; from tissue; host or cells: extracts of human polymorphonuclear leukocytes (PMNs), method of Baugh and Travis
T2 sequence (P08246 30-267): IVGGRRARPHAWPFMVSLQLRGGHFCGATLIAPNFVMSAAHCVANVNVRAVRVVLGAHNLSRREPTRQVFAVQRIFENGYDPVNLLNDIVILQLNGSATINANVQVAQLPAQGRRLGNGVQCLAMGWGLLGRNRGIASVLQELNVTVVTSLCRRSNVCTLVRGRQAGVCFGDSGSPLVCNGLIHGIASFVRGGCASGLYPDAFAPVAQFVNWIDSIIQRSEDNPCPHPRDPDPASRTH
Experimental: as §1, §2
Serine proteinases were incubated with various concentrations of KFN 1593 for 30 min. Substrate was then added and residual proteinase activity was measured at 405 nm. […]
as §7, §8, §9

[2] = biological target: T3, Human neutrophil cathepsin G (Homo sapiens, UniProt P08311); assay: Inhibition of serine proteinases: neutrophil cathepsin G; assay type: biochemical; settings: Example 9; enzyme 50 nM, substrate S7388, 30 min incubation; read-out: Apparent Ki (nM), N. cathepsin G
T3 construct: Human neutrophil cathepsin G was purified from extracts of PMNs; from tissue; host or cells: extracts of human polymorphonuclear leukocytes (PMNs), method of Baugh and Travis
T3 sequence (P08311 21-255): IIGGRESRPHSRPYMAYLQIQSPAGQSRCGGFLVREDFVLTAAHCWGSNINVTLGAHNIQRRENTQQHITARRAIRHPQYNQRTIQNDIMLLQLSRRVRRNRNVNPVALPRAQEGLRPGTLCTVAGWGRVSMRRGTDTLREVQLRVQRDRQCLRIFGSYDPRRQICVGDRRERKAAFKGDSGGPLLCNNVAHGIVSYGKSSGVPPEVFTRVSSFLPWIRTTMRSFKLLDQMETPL
Experimental: as §1, §2, §3, §4, §5, §6, §7, §8, §9

Bovine chymotrypsin = biological target: T4, Bovine chymotrypsin (Bos taurus, UniProt P00766); assay: Inhibition of serine proteinases: chymotrypsin; assay type: biochemical; settings: enzyme 2.5 nM, substrate S2586 0.6 mM, 30 min incubation
T4 construct: purchased Sigma Chemical Co. (St. Louis, Mo., U.S.A.)
Experimental: as §4, §5, §6, §7, §8, §9

Human plasmin [3] = biological target: T5, Human plasmin (Homo sapiens, UniProt P00747); assay: Inhibition of serine proteinases: plasmin; assay type: biochemical; parameters: human plasmin and human plasma kallikrein was from Kabi (Stockholm, Sweden); purchased Kabi (Stockholm, Sweden); settings: enzyme 4 nM, 30 min incubation, read-out: Apparent Ki (nM), Plasmin
Experimental: as §1, §2, §3, §4, §5, §6, §7, §8, §9
Target sequence in this assay (P00747 581-810 limits assumed): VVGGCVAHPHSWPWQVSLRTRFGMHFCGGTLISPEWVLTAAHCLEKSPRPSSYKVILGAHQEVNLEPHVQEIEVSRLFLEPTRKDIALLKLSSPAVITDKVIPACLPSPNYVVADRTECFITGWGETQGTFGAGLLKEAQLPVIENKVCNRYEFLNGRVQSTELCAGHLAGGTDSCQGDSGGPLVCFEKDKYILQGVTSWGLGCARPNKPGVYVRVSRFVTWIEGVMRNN
Target sequence in this assay (P00747 97-580 limits assumed): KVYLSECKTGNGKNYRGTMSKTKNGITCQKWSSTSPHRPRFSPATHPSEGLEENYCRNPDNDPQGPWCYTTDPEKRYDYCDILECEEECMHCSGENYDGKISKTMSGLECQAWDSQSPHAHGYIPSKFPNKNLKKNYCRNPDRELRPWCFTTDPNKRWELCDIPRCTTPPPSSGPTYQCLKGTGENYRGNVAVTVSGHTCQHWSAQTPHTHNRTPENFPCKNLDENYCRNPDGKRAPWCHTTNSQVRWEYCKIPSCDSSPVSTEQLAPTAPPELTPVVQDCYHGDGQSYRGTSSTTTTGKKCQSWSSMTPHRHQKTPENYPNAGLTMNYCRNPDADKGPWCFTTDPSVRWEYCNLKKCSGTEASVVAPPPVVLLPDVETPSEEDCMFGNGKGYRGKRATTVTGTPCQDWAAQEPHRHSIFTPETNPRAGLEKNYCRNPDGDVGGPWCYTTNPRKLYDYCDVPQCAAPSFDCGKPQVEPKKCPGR

Human plasmin [4] = biological target: T5, Human plasmin
[5] = biological target: Porcine trypsin (porcine) (UniProt P00761)
[6] = biological target: bovine chymotrypsin (TLCK treated) (bovine) (UniProt P00766)
[7] = biological target: glandular kallikrein (as used in Example 8) (Sus scrofa (Pig)) (UniProt P00752)
plasma kallikrein [8] = biological target: T6, plasma kallikrein (Homo sapiens, UniProt P03952)
Human plasmin [9] = biological target: T5, Human plasmin; assay: apparent Ki; 4 nM plasmin, substrate S2251, 30 min preincubation, residual activity at 405 nm
[10] = biological target: Porcine trypsin (porcine) (UniProt P00761); assay: apparent Ki; 10 nM trypsin, substrate S2251, 30 min preincubation, residual activity at 405 nm
[11] = biological target: bovine chymotrypsin (TLCK treated) (bovine) (UniProt P00766); assay: apparent Ki; 2.5 nM chymotrypsin, substrate S2586, 30 min preincubation, residual activity at 405 nm
plasma kallikrein [12] = biological target: T6, plasma kallikrein; assay: apparent Ki; 3 nM plasma kallikrein, substrate S2302, 30 min preincubation, residual activity at 405 nm
[13] = biological target: glandular kallikrein (as used in Example 8) (Sus scrofa (Pig)) (UniProt P00752); assay: apparent Ki; 1 U/ml glandular kallikrein, substrate S2266, 30 min preincubation, residual activity at 405 nm
[14] = biological target: Human neutrophil elastase (human) (UniProt P08246)
[15] = biological target: Human neutrophil elastase (human) (UniProt P08246); assay: apparent Ki; 4 nM neutrophil elastase, substrate M4765, 30 min preincubation, residual activity at 405 nm
plasma kallikrein [16] = biological target: T6, plasma kallikrein; assay: Inhibition of serine proteinases: plasma kallikrein; assay type: biochemical; settings: Example 8; enzyme 3 nM, substrate S2302 0.6 mM, 30 min incubation; read-out: Apparent Ki (nM), Pl. kallikrein
Experimental: as §1, §2, §3, §4, §5, §6
Target sequence in this assay (P03952 391-638 limits assumed): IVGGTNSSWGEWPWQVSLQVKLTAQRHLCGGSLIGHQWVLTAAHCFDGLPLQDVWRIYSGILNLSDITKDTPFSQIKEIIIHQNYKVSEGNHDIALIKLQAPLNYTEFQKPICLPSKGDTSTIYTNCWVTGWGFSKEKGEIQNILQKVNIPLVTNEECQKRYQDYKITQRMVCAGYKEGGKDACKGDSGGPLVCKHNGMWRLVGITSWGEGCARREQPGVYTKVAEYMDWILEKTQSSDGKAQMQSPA
Target sequence in this assay (P03952 20-390 limits assumed): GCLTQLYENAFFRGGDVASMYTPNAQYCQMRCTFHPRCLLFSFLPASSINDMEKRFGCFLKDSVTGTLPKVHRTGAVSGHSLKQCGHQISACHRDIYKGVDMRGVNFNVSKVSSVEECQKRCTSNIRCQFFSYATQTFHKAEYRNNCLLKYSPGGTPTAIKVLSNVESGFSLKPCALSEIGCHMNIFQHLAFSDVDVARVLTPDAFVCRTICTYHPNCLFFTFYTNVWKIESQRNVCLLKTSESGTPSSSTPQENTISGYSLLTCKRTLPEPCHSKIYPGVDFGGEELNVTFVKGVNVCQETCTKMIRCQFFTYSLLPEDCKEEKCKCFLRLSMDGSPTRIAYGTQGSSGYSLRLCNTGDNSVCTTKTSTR

[17] = biological target: T7, glandular kallikrein (porcine pancreatic kallikrein) (Sus scrofa, UniProt P00752); assay: Inhibition of serine proteinases: glandular kallikrein; assay type: biochemical; settings: Example 8; enzyme 1 U/ml, substrate S2266 0.6 mM, 30 min incubation; read-out: Apparent Ki (nM), Gl. kallikrein
T7 construct: purchased Sigma Chemical Co (St. Louis, Mo., U.S.A.)
T7 sequence (P00752 8-246): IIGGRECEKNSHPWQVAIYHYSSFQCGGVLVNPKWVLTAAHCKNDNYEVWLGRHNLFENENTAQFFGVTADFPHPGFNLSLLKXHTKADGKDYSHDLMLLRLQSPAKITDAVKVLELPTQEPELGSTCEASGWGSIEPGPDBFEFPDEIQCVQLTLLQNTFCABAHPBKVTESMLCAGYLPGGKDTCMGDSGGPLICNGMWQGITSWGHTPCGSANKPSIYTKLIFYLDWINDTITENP
Experimental: as §1, §2, §3, §4, §5, §6

[18] = biological target: bovine chymotrypsin (TLCK treated) (bovine) (UniProt P00766); remark: listed apart in the source
[19] = Example 9, substrate S2251, 30 min incubation
[20] = Example 9, read-out: Apparent Ki (nM), Chymotrypsin
[21] = Example 8, substrate S2251 0.6 mM, 30 min incubation
[22] = Example 8, read-out: Apparent Ki (nM), chymotrypsin
[23] = Example 8, substrate S2251 0.6 mM

## [R15L, G16A]-TFPI-2 [KFN 1893]
Porcine trypsin; [19]
  Ki: > 1000 nM
[1]
  neutrophil elastase inhibition (in words): strong inhibitors
  Ki: 0.23 nM
[2]
  Ki: > 1000 nM
Bovine chymotrypsin; [20]
  Ki: < 5 nM
Human plasmin [3]; Example 9
  Ki: > 1000 nM

## [R15V]-TFPI-2 [KFN 1898]
Porcine trypsin; [19]
  Ki: > 1000 nM
[1]
  neutrophil elastase inhibition (in words): strong inhibitors
  Ki: 0.35 nM
[2]
  Ki: > 1000 nM
Bovine chymotrypsin; [20]
  Ki: > 100 nM
Human plasmin [3]; Example 9
  Ki: > 1000 nM

## [R15K, G16A, Y17R, T19I, L39R]-TFPI-2 from yeast strain KFN-1867 (from UniProt P10646)
Human plasmin [4]
  apparent Ki: 3 nM
[5]
  apparent Ki: < 1 nM
[6]
  apparent Ki: 20 nM
[7]
  apparent Ki: > 100 nM
Plasma kallikrein [8]
  apparent Ki: > 100 nM
Human plasmin [9]
  Ki: 3 nM
[10]
  Ki: < 1 nM
[11]
  Ki: 20 nM
Plasma kallikrein [12]
  Ki: > 100 nM
[13]
  Ki: > 100 nM

## [R15L]-TFPI-2 [KFN 1928]
Porcine trypsin; [19]
  Ki: > 1000 nM
[1]
  neutrophil elastase inhibition (in words): strong inhibitors
  Ki: 2.2 nM
[2]
  Ki: > 1000 nM
Bovine chymotrypsin; [20]
  Ki: < 5 nM
Human plasmin [3]; Example 9
  Ki: > 1000 nM

## [R15V, G16A]-TFPI-2 from yeast strain KFN-1897 (from UniProt P10646)
[14]
  apparent Ki: 0.46 nM
[15]
  Ki: 0.46 nM

## [R15V]-TFPI-2 from yeast strain KFN-1898 (from UniProt P10646)
[14]
  apparent Ki: 0.35 nM
[15]
  Ki: 0.35 nM

## [R15K, G16A, Y17R, T19I, L39R, E46K]-TFPI-2 [KFN 1868]
Porcine trypsin; [21]
  Ki: < 1 nM
Plasma kallikrein [16]
  Ki: > 100 nM
[17]
  Ki: > 100 nM
Bovine chymotrypsin; [22]
  Ki: 20 nM
Human plasmin [3]; [23]
  Ki: 3 nM

## [R15K, G16A, Y17R, T19I, L39R]-TFPI-2 [KFN 1867]
Porcine trypsin; [21]
  Ki: < 1 nM
Plasma kallikrein [16]
  Ki: > 100 nM
[17]
  Ki: > 100 nM
Bovine chymotrypsin; [22]
  Ki: 20 nM
Human plasmin [3]; [23]
  Ki: 3 nM

## [R15K, G16A, Y17R, T19I, L39R, E46K]-TFPI-2 from yeast strain KFN-1868 (from UniProt P10646)
Human plasmin [4]
  apparent Ki: 3 nM
[5]
  apparent Ki: < 1 nM
[6]
  apparent Ki: 20 nM
[7]
  apparent Ki: > 100 nM
Plasma kallikrein [8]
  apparent Ki: > 100 nM
Human plasmin [9]
  Ki: 3 nM
[10]
  Ki: < 1 nM
[11]
  Ki: 20 nM
Plasma kallikrein [12]
  Ki: > 100 nM
[13]
  Ki: > 100 nM

## [R15L, G16A]-TFPI-2 from yeast strain KFN-1893 (from UniProt P10646)
[14]
  apparent Ki: 0.23 nM
[18]
  apparent Ki: < 5 nM
[11]
  Ki: < 5 nM
[15]
  Ki: 0.23 nM

## [R15K, G16A, Y17R, T19I]-TFPI-2 from yeast strain KFN-1811 (from UniProt P10646)
Human plasmin [4]
  apparent Ki: 3 nM
[5]
  apparent Ki: < 1 nM
[6]
  apparent Ki: 10 nM
[7]
  apparent Ki: > 100 nM
Plasma kallikrein [8]
  apparent Ki: > 100 nM
Human plasmin [9]
  Ki: 3 nM
[10]
  Ki: < 1 nM
[11]
  Ki: 10 nM
Plasma kallikrein [12]
  Ki: > 100 nM
[13]
  Ki: > 100 nM

## [R15K, G16A, Y17R, T19I]-TFPI-2 [KFN 1811]
Porcine trypsin; [21]
  Ki: < 1 nM
Plasma kallikrein [16]
  Ki: > 100 nM
[17]
  Ki: > 100 nM
Bovine chymotrypsin; [22]
  Ki: 10 nM
Human plasmin [3]; [23]
  Ki: 3 nM

## [R15V, G16A]-TFPI-2 [KFN 1897]
Porcine trypsin; [19]
  Ki: > 1000 nM
[1]
  neutrophil elastase inhibition (in words): strong inhibitors
  Ki: 0.46 nM
[2]
  Ki: > 1000 nM
Bovine chymotrypsin; [20]
  Ki: > 100 nM
Human plasmin [3]; Example 9
  Ki: > 1000 nM
